Experimental data: PMC6080606, “Transbilayer phospholipid movement facilitates the translocation of annexin across membranes” (Journal of Cell Science, 2018)

T1: recombinant annexin A5 (UniProt P08758 1-320, Alexa Fluor 647 conjugated (the labelled copy held at a constant 20 µg/ml; position not stated); the titrated copy of the dimerisation assay is unlabelled)
T1 construct: annexin A5 (annexin V), recombinant; The products were matched from the reagents list: the Alexa Fluor 647 conjugate is likely Biolegend 640912 and the unlabelled protein likely Novus NBP1-30265; Labelled and unlabelled copies are written as one molecule for the self-association; also called annexin V; annexin A5 conjugated to Alexa Fluor 647; source: recombinant, bought (reagents list: annexin-V …)
T1 sequence (looked up): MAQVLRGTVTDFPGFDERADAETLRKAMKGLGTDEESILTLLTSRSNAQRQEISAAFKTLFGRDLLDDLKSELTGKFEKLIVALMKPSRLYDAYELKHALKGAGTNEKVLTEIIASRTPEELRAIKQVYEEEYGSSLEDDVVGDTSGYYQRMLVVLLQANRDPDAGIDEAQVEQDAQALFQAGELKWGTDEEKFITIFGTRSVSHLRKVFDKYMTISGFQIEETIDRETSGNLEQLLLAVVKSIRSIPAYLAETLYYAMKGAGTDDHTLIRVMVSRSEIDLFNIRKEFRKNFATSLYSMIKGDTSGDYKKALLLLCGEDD

T2: recombinant annexin A5, P08758
T2 chain: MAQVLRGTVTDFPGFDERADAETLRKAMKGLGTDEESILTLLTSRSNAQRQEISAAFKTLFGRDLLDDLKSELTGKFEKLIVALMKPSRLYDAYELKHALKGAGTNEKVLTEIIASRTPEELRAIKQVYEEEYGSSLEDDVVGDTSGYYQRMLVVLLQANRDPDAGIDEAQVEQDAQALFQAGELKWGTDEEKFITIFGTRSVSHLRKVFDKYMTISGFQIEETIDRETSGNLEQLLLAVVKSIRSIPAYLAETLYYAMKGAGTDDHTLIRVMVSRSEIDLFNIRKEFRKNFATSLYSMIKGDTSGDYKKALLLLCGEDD


Tests used:
recombinant annexin A5 = molecular target: T1, recombinant annexin A5; assay: MST; Nanotemper Monolith NT.115; constant annexin A5-Alexa Fluor 647 (20 µg/ml) mixed with cinnamycin from 7×10^−8 mM to 1 mM, 1 h at room temperature; conditions: both partners purified
[1] = molecular target: T2, recombinant annexin A5, P08758; assay: MST; Nanotemper Monolith NT.115; constant annexin A5-Alexa Fluor 647 (20 µg/ml) mixed with unlabelled recombinant annexin A5 from 7×10^−6 µg/ml to 100 µg/ml, 1 h at room temperature, with 5 µM Ca2+ (CaCl2); dimerisation (dimer to monomers), used as positive control; conditions: remark: other sources report otherwise

Binder	Kd (recombinant annexin A5) [µM]	Kd [1] [µM]
CRQSCSFGPFTFVCDGNTK (peptide, UniProt P29827 60-78, looked up, cinnamycin, a 19-amino-acid lantibiotic (the mature peptide cut from its precursor); source: bought: Santa Cruz Biotechnology (sc-391464)) [cinnamycin]	614	
recombinant annexin A5, P08758 1-320 (natural protein, here or on the partner: Alexa Fluor 647 conjugated (the labelled copy held at a constant 20 µg/ml; position not stated); the titrated copy of the dimerisation assay is unlabelled; Alexa Fluor 647 conjugated (the labelled copy held at a constant 20 µg/ml; position not stated); the titrated copy of the dimerisation assay is unlabelled) MAQVLRGTVTDFPGFDERADAETLRKAMKGLGTDEESILTLLTSRSNAQRQEISAAFKTLFGRDLLDDLKSELTGKFEKLIVALMKPSRLYDAYELKHALKGAGTNEKVLTEIIASRTPEELRAIKQVYEEEYGSSLEDDVVGDTSGYYQRMLVVLLQANRDPDAGIDEAQVEQDAQALFQAGELKWGTDEEKFITIFGTRSVSHLRKVFDKYMTISGFQIEETIDRETSGNLEQLLLAVVKSIRSIPAYLAETLYYAMKGAGTDDHTLIRVMVSRSEIDLFNIRKEFRKNFATSLYSMIKGDTSGDYKKALLLLCGEDD		1
